The values below come from patent publication CN113372448A.

The target in this experiment is CIB-OVA (cimbuterol coupled to ovalbumin, detection/coating antigen) (UniProt P01012). Kind of experiment: indirect ELISA of soluble scFv (periplasmic extract), steps as in Example 2 (CIB-OVA coated); negative control pCANTAB-5E/HB2151. In general terms: In an ELISA, binding on a coated surface is turned into a signal by an enzyme label.
Chain of UniProt P01012 (P01012 2-386 limits assumed, form in doubt): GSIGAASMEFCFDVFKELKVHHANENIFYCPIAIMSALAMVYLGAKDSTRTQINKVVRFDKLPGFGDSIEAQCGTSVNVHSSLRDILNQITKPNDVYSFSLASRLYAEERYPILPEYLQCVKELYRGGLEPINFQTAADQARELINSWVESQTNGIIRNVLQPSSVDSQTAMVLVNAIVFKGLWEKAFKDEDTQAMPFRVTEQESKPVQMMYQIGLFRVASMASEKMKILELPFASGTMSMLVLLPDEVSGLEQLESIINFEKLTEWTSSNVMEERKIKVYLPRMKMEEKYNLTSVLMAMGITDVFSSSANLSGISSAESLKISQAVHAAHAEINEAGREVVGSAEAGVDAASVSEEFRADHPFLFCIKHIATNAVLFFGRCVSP

B1: 5-CIB-ScFv (soluble anti-CIB single-chain antibody expressed from CIB-ScFv-pCANTAB5E in E. coli HB2151) (scFv, not shown: small tags and cut ends)
scFv: QVQLQESGADLVRPGTSVKVSCKASGYAFTNYLIEWVKQRPGQGLEWIGVINPGSGGTNYNEKFKGKATLTTDKSSSTAYMQLNSLTSEDSAVYFCKRPPMITTRRTGFDYWGQGTTVTVSSGGGGSGGGGSGGGGSDIELTQSPTTMAASPGEKITITCSATSSLSSNYLHWYQQKPGFSPKLLIYRTSNLASGVPTRFSGSGSGTSYSLTIGTMEAEDVATYYCHQYHRSPFTFGSGTKLEIKR
Turning to B1, the 效价 (titre, P/N>2.1) (dilution factor (1:x)) came out at 160.
